Results: patent US10967068B2, “Stability-modulating linkers for use with antibody drug conjugates” (priority 2014, dated 2021)
*1 amine or outer side, *2 acyl side, *3 side chain or, on linkers, in order; H or OH if unused. Where a SMILES comes first, the peptide text is derived from it. [ ]: non-standard residue; d: D form. The star is where a group is joined. Dolaproine = CO[C@@H]([C@@H]1CCCN1)[C@@H](C)C(=O)O; Dil = CC[C@H](C)[C@H](NC)[C@@H](CC(=O)O)OC; Imidazole4carbonyl = O=C(c1cnc[nH]1)*; PABC = O=C(OCc1ccc(N[*:1])cc1)[*:2]; Doe = c1ccc(C[C@H](N*)c2nccs2)cc1; Cit = NC(=O)NCCC[C@H](N)C(=O)O; PhAc = O=C(Cc1ccccc1)*; Aib = CC(C)(N)C(=O)O; Piv = CC(C)(C)C(=O)*; X2 = CC1(C(=O)*)COC1; Glycolyl = O=C(CO)*; Ms = CS(=O)(=O)*; Sar = CNCC(=O)O

Assay: In Vitro Stability Assay—Mouse Plasma
Type: in vitro ADME
Details: for DAR: before plasma incubation
[1] = attachment position L11B, % DAR remaining after plasma 3 or 4.5 days

Procedure: 100-200 ug of ADC were incubated in mouse plasma (provided by Bioreclamation) supplemented with 1×PBS to the final ADC concentration of 0.125 mg/mL. Following incubation for 3-7 days, samples were diluted with an equal volume of 1×PBS, and ADCs were isolated using Trop2 antigen coupled to CNBr-activated Sepharose (GE Healthcare) using standard protocols. Drug-antibody ratios were assessed before and after in vitro exposure using HIC methods and mass spectrometry.
DAR values for conjugates purified after plasma incubation were compared to DAR values prior to plasma treatment.

Row | Structure (SMILES) | Conjugate stability (%) [1] | DAR (attachment position L11B) | DAR after plasma incubation for 3 to 4.5 days (attachment position L11B) | DAR after plasma incubation for 3 to 4.5 days (attachment position H16) | Conjugate stability (%) (attachment position H16, % DAR remaining after plasma 3 or 4.5 days) | DAR (attachment position H16) | DAR (Trop-2 antibody attachment position TG6, HIC or mass spectrometry) | Conjugate stability (%) (attachment position TG6, % DAR remaining after incubation in plasma for 3 or 4.5 days) | DAR after plasma incubation for 3 to 4.5 days (attachment position TG6, plasma species not printed in table (values match mouse plasma, Table 4))
1 | CC[C@H](C)[C@@H]([C@@H](CC(=O)N1CCC[C@H]1[C@H](OC)[C@@H](C)C(=O)N[C@@H](Cc1ccccc1)c1nccs1)OC)N(C)C(=O)[C@@H](NC(=O)C(C)(C)NC(=O)OCc1ccc(NC(=O)[C@H](CCCNC(N)=O)NC(=O)[C@@H](NC(=O)[C@H](CCCCN)NC(=O)CO)C(C)C)cc1)C(C)C [Example 25, N˜2˜-(hydroxyacetyl)-L-lysylvalyl-N-{4-[(8S,11S,12R)-11-[(2S)-butan-2-yl]-12-(2-{(2S)-2-[(1R,2R)-1-methoxy-2-methyl-3-oxo-3-{[(1S)-2-phenyl-1-(1,3-thiazol-2-yl)ethyl]amino}propyl]pyrrolidin-1-yl}-2-oxoethyl)-5,5,10-trimethyl-3,6,9-trioxo-8-(propan-2-yl)-2,13-dioxa-4,7,10-triazatetradec-1-yl]phenyl}-N˜5˜-carbamoyl-L-ornithinamide] (Glycolyl-KV[Cit][PABC][Aib]V[Dil][Dolaproine]-Doe) | 84% | 1.91 |  |  |  |  |  |  | 
2 | CC[C@H](C)[C@@H]([C@@H](CC(=O)N1CCC[C@H]1[C@H](OC)[C@@H](C)C(=O)N[C@@H](Cc1ccccc1)c1nccs1)OC)N(C)C(=O)[C@@H](NC(=O)C(C)(C)NC(=O)OCc1ccc(NC(=O)[C@H](CCCNC(N)=O)NC(=O)[C@@H](NC(=O)[C@H](CCCCN)NC(=O)C2(C)COC2)C(C)C)cc1)C(C)C [Example 30, N˜2˜-[(3-methyloxetan-3-yl)carbonyl]-L-lysyl-L-valyl-N-{4-[(8S,11S,12R)-11-[(2S)-butan-2-yl]-12-(2-{(2S)-2-[(1R,2R)-1-methoxy-2-methyl-3-oxo-3-{[(1S)-2-phenyl-1-(1,3-thiazol-2-yl)ethyl]amino}propyl]pyrrolidin-1-yl}-2-oxoethyl)-5,5,10-trimethyl-3,6,9-trioxo-8-(propan-2-yl)-2,13-dioxa-4,7,10-triazatetradec-1-yl]phenyl}-N˜5˜-carbamoyl-L-ornithinamide] (X2-KV[Cit][PABC][Aib]V[Dil][Dolaproine]-Doe) | 5% | 1.27 | 0.06 |  |  |  |  |  | 
3 | CC[C@H](C)[C@@H]([C@@H](CC(=O)N1CCC[C@H]1[C@H](OC)[C@@H](C)C(=O)N[C@@H](Cc1ccccc1)c1nccs1)OC)N(C)C(=O)[C@@H](NC(=O)C(C)(C)NC(=O)OCc1ccc(NC(=O)[C@H](CCCNC(N)=O)NC(=O)[C@@H](NC(=O)[C@H](CCCCN)NC(=O)c2cnc[nH]2)C(C)C)cc1)C(C)C [Example 4, N˜2˜-(1H-Imidazol-5-ylcarbonyl)-L-lysyl-L-valyl-N-{4-[(8S,11S,12R)-11-[(2S)-butan-2-yl]-12-(2-{(2S)-2-[(1R,2R)-1-methoxy-2-methyl-3-oxo-3-{[(1S)-2-phenyl-1-(1,3-thiazol-2-yl)ethyl]amino}propyl]pyrrolidin-1-yl}-2-oxoethyl)-5,5,10-trimethyl-3,6,9-trioxo-8-(propan-2-yl)-2,13-dioxa-4,7,10-triazatetradec-1-yl]phenyl}-N˜5˜-carbamoyl-L-ornithinamide] (Imidazole4carbonyl-KV[Cit][PABC][Aib]V[Dil][Dolaproine]-Doe) |  |  |  | 1.89 | 100% | 1.84 |  |  | 
4 | CC[C@H](C)[C@@H]([C@@H](CC(=O)N1CCC[C@H]1[C@H](OC)[C@@H](C)C(=O)N[C@@H](Cc1ccccc1)c1nccs1)OC)N(C)C(=O)[C@@H](NC(=O)C(C)(C)NC(=O)OCc1ccc(NC(=O)[C@H](CCCNC(N)=O)NC(=O)[C@@H](NC(=O)[C@H](CCCCN)NC(=O)CNC)C(C)C)cc1)C(C)C [Example 27, N-methylglycyl-L-lysylvalyl-N-{4-[(8S,11S,12R)-11-[(2S)-butan-2-yl]-12-(2-{(2S)-2-[(1R,2R)-1-methoxy-2-methyl-3-oxo-3-{[(1S)-2-phenyl-1-(1,3-thiazol-2-yl)ethyl]amino}propyl]pyrrolidin-1-yl}-2-oxoethyl)-5,5,10-trimethyl-3,6,9-trioxo-8-(propan-2-yl)-2,13-dioxa-4,7,10-triazatetradec-1-yl]phenyl}-N˜5˜-carbamoyl-L-ornithinamide] (H-[Sar]KV[Cit][PABC][Aib]V[Dil][Dolaproine]-Doe) | 57% | 1.72 | 0.98 |  |  |  |  |  | 
5 | CC[C@H](C)[C@@H]([C@@H](CC(=O)N1CCC[C@H]1[C@H](OC)[C@@H](C)C(=O)N[C@@H](Cc1ccccc1)c1nccs1)OC)N(C)C(=O)[C@@H](NC(=O)C(C)(C)NC(=O)OCc1ccc(NC(=O)[C@H](CCCNC(N)=O)NC(=O)[C@@H](NC(=O)[C@H](CCCCN)NC(=O)[C@H](N)CO)C(C)C)cc1)C(C)C [Example 39, D-seryl-L-lysylvalyl-N-{4-[(8S,11S,12R)-11-[(2S)-butan-2-yl]-12-(2-{(2S)-2-[(1R,2R)-1-methoxy-2-methyl-3-oxo-3-{[(1S)-2-phenyl-1-(1,3-thiazol-2-yl)ethyl]amino}propyl]pyrrolidin-1-yl}-2-oxoethyl)-5,5,10-trimethyl-3,6,9-trioxo-8-(propan-2-yl)-2,13-dioxa-4,7,10-triazatetradec-1-yl]phenyl}-N˜5˜-carbamoyl-L-ornithinamide] (H-[dS]KV[Cit][PABC][Aib]V[Dil][Dolaproine]-Doe) | 82% | 1.87 | 1.53 |  |  |  |  |  | 
6 | CC[C@H](C)[C@@H]([C@@H](CC(=O)N1CCC[C@H]1[C@H](OC)[C@@H](C)C(=O)N[C@@H](Cc1ccccc1)c1nccs1)OC)N(C)C(=O)[C@@H](NC(=O)C(C)(C)NC(=O)OCc1ccc(NC(=O)[C@H](CCCNC(N)=O)NC(=O)[C@@H](NC(=O)[C@H](CCCCN)NS(C)(=O)=O)C(C)C)cc1)C(C)C [Example 44, N˜2˜-(methylsulfonyl)lysyl-L-valyl-N-{4-[(8S,11S,12R)-11-[(2S)-butan-2-yl]-12-(2-{(2S)-2-[(1R,2R)-1-methoxy-2-methyl-3-oxo-3-{[(1S)-2-phenyl-1-(1,3-thiazol-2-yl)ethyl]amino}propyl]pyrrolidin-1-yl}-2-oxoethyl)-5,5,10-trimethyl-3,6,9-trioxo-8-(propan-2-yl)-2,13-dioxa-4,7,10-triazatetradec-1-yl]phenyl}-N˜5˜-carbamoylornithinamide] (Ms-KV[Cit][PABC][Aib]V[Dil][Dolaproine]-Doe) | 17% | 1.50 | 0.25 |  |  |  | 1.74 | 47% | 0.82
7 | CC[C@H](C)[C@@H]([C@@H](CC(=O)N1CCC[C@H]1[C@H](OC)[C@@H](C)C(=O)N[C@@H](Cc1ccccc1)c1nccs1)OC)N(C)C(=O)[C@@H](NC(=O)C(C)(C)NC(=O)OCc1ccc(NC(=O)[C@H](CCCNC(N)=O)NC(=O)[C@@H](NC(=O)[C@H](CCCCN)NC(=O)C(C)(C)C)C(C)C)cc1)C(C)C [Example 2, N˜2˜-(2,2-Dimethylpropanoyl)-L-lysyl-L-valyl-N-{4-[(8S,11S,12R)-11-[(2S)-butan-2-yl]-12-(2-{(2S)-2-[(1R,2R)-1-methoxy-2-methyl-3-oxo-3-{[(1S)-2-phenyl-1-(1,3-thiazol-2-yl)ethyl]amino}propyl]pyrrolidin-1-yl}-2-oxoethyl)-5,5,10-trimethyl-3,6,9-trioxo-8-(propan-2-yl)-2,13-dioxa-4,7,10-triazatetradec-1-yl]phenyl}-N˜5˜-carbamoyl-L-ornithinamide] (Piv-KV[Cit][PABC][Aib]V[Dil][Dolaproine]-Doe) | 0% | 1.54 | 0 |  |  |  |  |  | 
8 | CC[C@H](C)[C@@H]([C@@H](CC(=O)N1CCC[C@H]1[C@H](OC)[C@@H](C)C(=O)N[C@@H](Cc1ccccc1)c1nccs1)OC)N(C)C(=O)[C@@H](NC(=O)C(C)(C)NC(=O)OCc1ccc(NC(=O)[C@H](CCCNC(N)=O)NC(=O)[C@@H](NC(=O)[C@H](CCCCN)NC(=O)Cc2ccccc2)C(C)C)cc1)C(C)C [Example 3, N˜2˜-(Phenylacetyl)-L-lysyl-L-valyl-N-{4-[(8S,11S,12R)-11-[(2S)-butan-2-yl]-12-(2-{(2S)-2-[(1R,2R)-1-methoxy-2-methyl-3-oxo-3-{[(1S)-2-phenyl-1-(1,3-thiazol-2-yl)ethyl]amino}propyl]pyrrolidin-1-yl}-2-oxoethyl)-5,5,10-trimethyl-3,6,9-trioxo-8-(propan-2-yl)-2,13-dioxa-4,7,10-triazatetradec-1-yl]phenyl}-N˜5˜-carbamoyl-L-ornithinamide] (PhAc-KV[Cit][PABC][Aib]V[Dil][Dolaproine]-Doe) | 0% | 1.66 | 0 |  |  |  |  |  | 
9 | CC[C@H](C)[C@@H]([C@@H](CC(=O)N1CCC[C@H]1[C@H](OC)[C@@H](C)C(=O)N[C@@H](Cc1ccccc1)c1nccs1)OC)N(C)C(=O)[C@@H](NC(=O)C(C)(C)NC(=O)OCc1ccc(NC(=O)[C@H](CCCNC(N)=O)NC(=O)[C@@H](NC(=O)[C@@H](N)CCCCN)C(C)C)cc1)C(C)C [Example 33, L-lysylvalyl-N-{4-[(8S,11S,12R)-11-[(2S)-butan-2-yl]-12-(2-{(2S)-2-[(1R,2R)-1-methoxy-2-methyl-3-oxo-3-{[(1S)-2-phenyl-1-(1,3-thiazol-2-yl)ethyl]amino}propyl]pyrrolidin-1-yl}-2-oxoethyl)-5,5,10-trimethyl-3,6,9-trioxo-8-(propan-2-yl)-2,13-dioxa-4,7,10-triazatetradec-1-yl]phenyl}-N˜5˜-carbamoyl-L-ornithinamide] (H-KV[Cit][PABC][Aib]V[Dil][Dolaproine]-Doe) | 34% | 1.53 | 0.52 |  |  |  |  |  | 
